Consider 1 molecule from PMC9801259.

This series has as its target OGG1 (UniProt O15527 1-345). Nature of the series: EMSA. A general note: Mobility shift assays separate free from complexed probe on a gel.

OGG1, sequence (O15527 whole entry): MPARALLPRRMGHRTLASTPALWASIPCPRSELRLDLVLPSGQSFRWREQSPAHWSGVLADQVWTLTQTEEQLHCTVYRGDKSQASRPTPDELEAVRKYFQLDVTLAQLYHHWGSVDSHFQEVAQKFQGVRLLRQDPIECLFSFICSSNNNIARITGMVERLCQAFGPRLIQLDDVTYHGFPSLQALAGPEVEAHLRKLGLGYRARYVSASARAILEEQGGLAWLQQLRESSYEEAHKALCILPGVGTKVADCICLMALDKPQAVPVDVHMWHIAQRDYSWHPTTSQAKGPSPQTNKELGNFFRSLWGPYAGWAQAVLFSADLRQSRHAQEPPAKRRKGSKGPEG

B1: 8-oxo(d)Gua and NF-kB motif probe (Cxcl2 promoter) (dsDNA)
DNA 1: TTCCCTGGTCCCCGGGCTTTTCCAGACATCG
DNA 2: CGATGTCTGGAAAAGCCCGGGGACCAGGGAA
modifications: 8-oxo-dG in antisense strand, printed CCAG*GGAA (G after the asterisk, position 28)
On to B1, for which the binding result is recorded as “binds”.
